From article PMC12884772, “Macrophagic Sclerostin Loop2‐ApoER2 Interaction Required by Sclerostin for Cardiovascular Protective Action” (Advanced Science, 2025)

Target: His-sclerostin loop2 (Limits are not printed (Table S1 not shown). Loop2 taken by convention as the cystine-knot segment Cys-Cys, mature 84-109 in mouse. The paper's mature numbering (I94..W99, with V97 specific to mouse))
Sequence (chain, as listed by the source): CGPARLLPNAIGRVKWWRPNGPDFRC
Assay: BLI; His-sclerostin loop2 loaded on anti-penta-HIS (HIS1K) biosensors, immersed in ApoER2-LA7 at different concentrations
Conditions: both partners purified

B1: ApoER2-LA7 (P290-L326) (peptide)
peptide: PCRENEFQCGDGTCVLAIKRCNQERDCPDGSDEAGCL
notes: LDLR type A repeat 7 (LA7) of ApoER2, P290-L326; The form with D-residues at the first and last three positions was used only in vivo and is not this molecule; also called ApoER2-Pep; ApoER2 peptide tool
Work on B1 yielded a Kd of 1900 nM.
